According to article PMC6689322 (Journal of structural biology, 2019):
One block for each molecule: values may come before it.

How the values were obtained:
[1] = target: ArsR As(III)-responsive transcriptional repressor from Corynebacterium glutamicum (Corynebacterium glutamicum); test: crystal structure
[2] = target: the molecule itself; test: crystal structure

stoichiometry N [1]: 2
Molecule: ArsR As(III)-responsive transcriptional repressor from Corynebacterium glutamicum (natural protein)

B1: ArsR As(III)-responsive transcriptional repressor from Acidithiobacillus ferrooxidans (natural protein)
chain: MEPLQDPAQIVARLEALASPVRLEIFRLLVEQEPTGLVSGDIAEHLGQPHNGISFHLKNLQHAGLVTVQREGRYQRYRAAMPVVRALVAYLTENCCHGTRDCALSGETRSPSVQEGNQ
stoichiometry N [2]: 2
